Like-named read-outs stand apart in the source and are kept apart here.
Experiments:
[1] = tested on: Cyp2b-knockdown mice; conditions: 75 mg/kg ip, observed 30 minutes
Protocol: Strychnine: Strychnine is a Cyp2b-inducer (Oguri et al., Arch. Biochem. Biophys. 287:105 (1991); Yamada et al., Arch. Biochem. Biophys. 299:248 (1992)) and therefore a potential CAR agonist. Strychnine is administered ip (75 mg/kg in saline) and observed for 30 minutes. Latency time to the first convulsions and number of animals showing convulsion is noted. […] Statistical analysis is performed using Fisher's 2×2 tests.

[2] = tested on: Cyp2b-knockdown mice; conditions: mouse, in vivo
[3] = tested on: Cyp2b-knockdown mice; assay: Chlorpyrifos toxicity in Cyp2b-knockdown mice; type: in vivo, mouse; conditions: 10 mg/kg ip
Protocol: Chlorpyrifos: Similar to parathion, chlorpyrifos is an organophosphate insecticide that activates CAR, but chlorpyrifos is more toxic to wild-type mice. Initial toxicity is outwardly shown by mucous discharge from the eyes and later by reduced activity or complete lethargy, similar to other acetylcholinesterase inhibitors. Mice are injected ip with 10 mg/kg of chlorpyrifos and watched for behavioral changes. Mice showing toxicity are immediately euthanized to avoid unnecessary distress or pain. Statistical differences are determined using a Fisher's 2×2 test (StatView®, SAS Institute, Cary, N.C.).

[4] = tested on: Cyp2b9 mRNA; assay: Q-PCR of Cyp2b9 mRNA in TCPOBOP-induced primary mouse hepatocytes transduced with lentiviral shRNA constructs; type: cell-based
Protocol: (§1) Q-PCR is performed to determine the efficacy of shRNA knockdown of the Cyp2b gene subfamily. Total RNA is isolated using a modified guanidinium thiocyanate-phenol-chloroform extraction protocol with TRI-reagent (Sigma, St. Louis, Mo.) according to the manufacturer's specifications followed by DNAse (Promega Corporation, Madison Wis.) treatment to remove residual genomic DNA. RNA is quantified spectrophotometrically and stored at −80° C. Reverse transcription is performed to create cDNA using MMLV-RT, a dNTP mixture, and random decamers. cDNA is stored at −20° C. Q-PCR is performed as described previously (Roling et al., Mar. Environ. Res. 57:377 (2004)). Briefly, to generate a standard curve and determine PCR efficiency, cDNA is combined and a 2×, 1:1, 1:10, 1:100, and 1:1000 dilution made. […] Amplifications are performed in triplicate using a 96-well MyiQ™ Real-Time PCR Detection System (Bio-Rad) with 0.25× SybrGreen as the fluorescent double strand-intercalating agent to quantify gene expression. The advantage of Q-PCR is having enough material to investigate a decrease of several Cyp2b isoforms as well as confirm that other P450 subfamilies are unaffected (Cyp3a, 2c).
(§2) Q-PCR results are normalized to the expression of the two housekeeping genes, β-Actin and 18S rRNA. A minimum of forty cycles is run on all real time samples to ensure a log based growth curve. Quantification is done by taking the efficiency curve of the Q-PCR reaction to the power of the threshold cycle (Ct). Samples are normalized to reference genes (β-actin and 18S rRNA) quantified for each sample. The formula for calculating normalized gene expression is NE={Eref}^Ct-ref/{Etarget}^Ct-target where NE is normalized gene expression, E is the efficiency of amplification for a particular gene, Ct is the threshold cycle, ref is the housekeeping gene (β-actin and 18S rRNA), and target is the gene of interest (Muller et al., Biotechniques 32:1372 (2002)).
(§3) The efficacy of the Cyp2b-KD2 and Cyp2b-KD3 lentiviral constructs to repress the expression of the Cyp2b subfamily members, Cyp2b9 and Cyp2b10 was tested using primary mouse hepatocytes. Primary mouse hepatocytes were plated in 6-well plates, treated with the CAR activator TCPOBOP to induce Cyp2b subfamily members (especially Cyp2b10) and then infected with either scrambled, Cyp2b-KD2 or Cyp2b-KD3 at a multiplicity of infection (MOI) of 20 and/or 5. The percentage of cells infected based on the presence of green fluorescence using fluorescent microscopy was approximately 65-80+% in KD2 transduced cells at a MOI of 5 and a about 55-70% in KD3 transduced cells at a MOI of 5.

[5] = tested on: Cyp2b10 mRNA; assay: Q-PCR of Cyp2b10 mRNA in TCPOBOP-induced primary mouse hepatocytes transduced with lentiviral shRNA constructs; type: cell-based; conditions: for reduction of Cyp2b10 expression: MOI 20 and/or 5, vs scrambled lentivirus
Protocol: as §1, §2, §3

[6] = tested on: primary mouse hepatocytes; assay: Percentage of cells infected, by green fluorescence microscopy; type: cell-based; conditions: MOI of 5
Protocol: as §3

[7] = TCPOBOP-treated primary mouse hepatocytes

Molecule | Cyp2b9 expression relative to cells treated with the scrambled shRNA (in words) [4] | Cyp2b10 expression relative to cells treated with the scrambled shRNA (in words) [5] | reduction of Cyp2b10 expression [5, 7] | percentage of cells infected based on green fluorescence [6] | other results
O=C1C[C@@H]2OCC=C3CN4CC[C@]56c7ccccc7N1[C@H]5[C@H]2[C@H]3C[C@H]46 [strychnine] | – | – | – | – | protection from convulsions [1]: protection
CC(=O)Nc1ccc(O)cc1 [acetaminophen] | – | – | – | – | toxicity in TCPOBOP-treated mice [2]: greatest amount of toxicity
CCOP(=S)(OCC)Oc1nc(Cl)c(Cl)cc1Cl [chlorpyrifos] | – | – | – | – | sensitivity as compared to wild-type mice [3]: decreased sensitivity
Cyp2b-KD3: lentiviral shRNA construct targeting mouse Cyp2b subfamily; siRNA sequence CAGGAAAGCGCATTTGTCTTG (nucleic acid) DNA: GGATCCCGCAAGACAAATGCGCTTTCCTGTTGATATCCGCAGGAAAGCGCATTTGTCTTGTTTTTTCCAACTCGAG | not reduced | only KD2 reduced | 50% | 55-70% | Cyp2b9 expression relative to cells treated with the scrambled shRNA (in words) ([4]; listed as KD3): reduced
scrambled-shRNA: control shRNA construct with scrambled sequence that does not recognize any murine mRNAs (nucleic acid) GGATCCCGACGATTCGAGGCGCAGTGATTTGATATCCGATCACTGCTCCTCGAATCGTCTTTTTTCCAACTCGAG | – | – | – | – | Cyp2b9 expression relative to uninfected cells (in words) [4, 7]: did not reduce; Cyp2b10 expression relative to uninfected cells (in words) [5, 7]: did not reduce
Cyp2b-KD2: lentiviral shRNA construct targeting mouse Cyp2b subfamily; siRNA sequence AAGAACACTGAGGTGTACCCC (nucleic acid) DNA: GGATCCCAAGAACACTGAGGTGTACCCCTTGATATCCGGGGGTACACCTCAGTGTTCTTTTTTTTCCAACTCGAG | reduced | reduced | 75-98% | 65-80% | reduction of Cyp2b9 expression ([4]; TCPOBOP-treated primary mouse hepatocytes, MOI 20 and/or 5, vs scrambled lentivirus): 75-98%
